Numbering of substitutions follows the chain as printed. Where two headings read alike, the source gives them in different places. Square brackets hold non-standard residues; d marks the D form. pY = N[C@@H](Cc1ccc(OP(=O)(O)O)cc1)C(=O)O
Assays:
TCPTP = target: T1, TCPTP (Homo sapiens, UniProt P17706); test: PTP assay, TCPTP; type: biochemical; settings: catalytic domain; 100 mM HEPES pH 7.4; monitored at 282 nm
T1 sequence (P17706 1-314): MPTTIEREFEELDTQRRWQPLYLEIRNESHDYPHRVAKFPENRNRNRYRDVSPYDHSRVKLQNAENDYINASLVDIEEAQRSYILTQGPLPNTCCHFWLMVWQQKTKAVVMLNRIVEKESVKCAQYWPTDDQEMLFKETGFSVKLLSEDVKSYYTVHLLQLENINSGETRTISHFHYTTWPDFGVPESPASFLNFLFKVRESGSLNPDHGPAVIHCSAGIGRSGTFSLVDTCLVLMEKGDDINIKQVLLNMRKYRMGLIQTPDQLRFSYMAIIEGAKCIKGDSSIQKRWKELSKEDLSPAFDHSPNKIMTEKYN

SHP-2 = target: T2, SHP-2 (Homo sapiens, UniProt Q06124); settings: catalytic domain; cited from earlier work
T2 sequence (Q06124 199-593): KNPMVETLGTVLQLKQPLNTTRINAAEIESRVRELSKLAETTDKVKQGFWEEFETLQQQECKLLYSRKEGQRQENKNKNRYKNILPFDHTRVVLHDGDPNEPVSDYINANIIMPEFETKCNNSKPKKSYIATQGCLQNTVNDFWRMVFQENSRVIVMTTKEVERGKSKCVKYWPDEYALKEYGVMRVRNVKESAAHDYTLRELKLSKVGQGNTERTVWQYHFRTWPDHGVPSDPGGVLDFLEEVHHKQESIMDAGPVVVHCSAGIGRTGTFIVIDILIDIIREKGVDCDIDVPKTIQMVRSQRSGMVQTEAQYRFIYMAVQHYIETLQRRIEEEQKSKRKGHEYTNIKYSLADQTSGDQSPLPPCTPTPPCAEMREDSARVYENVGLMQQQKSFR

SHP-1 = SHP-1 (Homo sapiens, UniProt P29350); settings: catalytic domain; cited from earlier work
HePTP = settings: cited from earlier work
[1] = target: T3, wild-type PTP1B catalytic domain (amino acids 1-321) (human) (UniProt P18031)
T3 sequence: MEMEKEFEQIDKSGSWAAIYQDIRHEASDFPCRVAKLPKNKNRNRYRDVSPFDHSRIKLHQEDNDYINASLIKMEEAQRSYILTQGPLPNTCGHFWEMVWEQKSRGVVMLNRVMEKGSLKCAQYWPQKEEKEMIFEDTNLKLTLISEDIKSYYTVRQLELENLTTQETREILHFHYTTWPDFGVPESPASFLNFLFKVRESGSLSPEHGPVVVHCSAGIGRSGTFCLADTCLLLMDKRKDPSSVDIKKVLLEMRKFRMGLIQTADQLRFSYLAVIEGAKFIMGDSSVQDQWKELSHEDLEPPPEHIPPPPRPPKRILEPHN

[2] = target: T4, R47E PTP1B catalytic domain (amino acids 1-321) (human) (UniProt P18031)
T4 sequence: T3 sequence with R47E

[3] = target: T5, R24M PTP1B catalytic domain (amino acids 1-321) (human) (UniProt P18031)
T5 sequence: T3 sequence with R24M

[4] = target: T6, PTP-PEST catalytic domain (aa 5-300), GST fusion (human) (UniProt Q05209)
T6 sequence: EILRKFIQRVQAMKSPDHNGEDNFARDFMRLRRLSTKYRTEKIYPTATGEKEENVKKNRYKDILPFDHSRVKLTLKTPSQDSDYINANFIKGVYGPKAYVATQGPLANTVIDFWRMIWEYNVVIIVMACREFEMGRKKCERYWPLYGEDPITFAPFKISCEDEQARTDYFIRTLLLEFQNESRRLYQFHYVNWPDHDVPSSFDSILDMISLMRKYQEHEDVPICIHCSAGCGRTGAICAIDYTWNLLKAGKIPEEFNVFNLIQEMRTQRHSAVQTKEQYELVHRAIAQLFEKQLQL

[5] = target: T7, HePTP (aa 22-335), GST fusion (human) (UniProt P35236)
T7 sequence: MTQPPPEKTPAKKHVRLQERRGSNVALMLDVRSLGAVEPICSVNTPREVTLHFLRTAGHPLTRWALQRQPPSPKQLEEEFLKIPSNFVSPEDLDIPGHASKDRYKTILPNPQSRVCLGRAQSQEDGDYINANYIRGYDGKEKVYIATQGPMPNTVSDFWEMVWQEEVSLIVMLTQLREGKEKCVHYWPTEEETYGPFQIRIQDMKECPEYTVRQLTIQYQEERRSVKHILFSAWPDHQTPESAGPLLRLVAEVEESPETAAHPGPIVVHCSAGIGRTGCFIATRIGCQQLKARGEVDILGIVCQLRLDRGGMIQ

[6] = target: T3, wild-type PTP1B catalytic domain (amino acids 1-321) (human); remark: listed apart in the source

Chain of SHP-1 (P29350 205-595): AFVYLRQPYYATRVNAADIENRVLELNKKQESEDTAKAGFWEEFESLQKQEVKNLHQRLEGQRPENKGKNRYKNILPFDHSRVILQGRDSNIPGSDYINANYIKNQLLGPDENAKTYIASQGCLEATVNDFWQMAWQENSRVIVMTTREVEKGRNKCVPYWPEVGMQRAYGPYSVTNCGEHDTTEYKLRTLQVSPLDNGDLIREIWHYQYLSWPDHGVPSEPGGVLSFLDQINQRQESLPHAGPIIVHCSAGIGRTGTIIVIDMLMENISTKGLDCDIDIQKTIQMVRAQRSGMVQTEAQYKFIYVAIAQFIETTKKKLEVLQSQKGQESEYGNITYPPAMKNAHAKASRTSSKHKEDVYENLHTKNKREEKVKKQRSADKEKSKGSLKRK

WDEDFpYDWEF
Km (TCPTP): 0.31 ± 0.01 µM | kcat (TCPTP): 9.0 ± 0.4 s⁻¹ | kcat/KM x10^6 (TCPTP): 29 x10^6 M^−1 s^−1 | Km (SHP-2): 6.3 ± 0.4 µM | kcat (SHP-2): 43 ± 1 ^c s^−1 | kcat/KM x10^6 (SHP-2): 6.8 ^c x10^6 M^−1 s^−1 | Km (SHP-1): 3.2 ± 0.3 µM | kcat (SHP-1): 75 ± 2 ^c s^−1 | kcat/KM x10^6 (SHP-1): 23 ^c x10^6 M^−1 s^−1

DHTGFLpTEpY^187VATRW [reference compound]
kcat/KM (HePTP): 4800 M⁻¹ s⁻¹

phospho-ERK2 protein: phosphorylated ERK2 protein, HePTP substrate recruited via KIM domain
rate of dephosphorylation at the same site (pY187) (HePTP): 2.6 × 10^6 M^−1 s^−1

B1: nephrin pY1217 peptide Ac-DPRGIpYDQVAG-NH2 (peptide)
peptide: Ac-DPRGI[pY]DQVAG-NH2
SMILES: CC[C@H](C)[C@H](NC(=O)CNC(=O)[C@H](CCCNC(=N)N)NC(=O)[C@@H]1CCCN1C(=O)[C@H](CC(=O)O)NC(C)=O)C(=O)N[C@@H](Cc1ccc(OP(=O)(O)O)cc1)C(=O)N[C@@H](CC(=O)O)C(=O)N[C@@H](CCC(N)=O)C(=O)N[C@H](C(=O)N[C@@H](C)C(=O)NCC(N)=O)C(C)C
KM, steady-state dephosphorylation of the pY peptide [1]: 7.1 µM | KM, steady-state dephosphorylation of the pY peptide [2]: 23 µM | KM, steady-state dephosphorylation of the pY peptide [3]: 71 µM

B2: Ac-AApYAAADD-NH2 (peptide)
peptide: Ac-AA[pY]AAADD-NH2
SMILES: CC(=O)N[C@@H](C)C(=O)N[C@@H](C)C(=O)N[C@@H](Cc1ccc(OP(=O)(O)O)cc1)C(=O)N[C@@H](C)C(=O)N[C@@H](C)C(=O)N[C@@H](C)C(=O)N[C@@H](CC(=O)O)C(=O)N[C@@H](CC(=O)O)C(N)=O
KM, steady-state dephosphorylation of the pY peptide [1]: 3 µM | KM, steady-state dephosphorylation of the pY peptide [2]: 10 µM | KM, steady-state dephosphorylation of the pY peptide [3]: 8.7 µM

B3: Ac-SASASpYSASA-NH2 (neutral) (peptide)
peptide: Ac-SASAS[pY]SASA-NH2
SMILES: CC(=O)N[C@@H](CO)C(=O)N[C@@H](C)C(=O)N[C@@H](CO)C(=O)N[C@@H](C)C(=O)N[C@@H](CO)C(=O)N[C@@H](Cc1ccc(OP(=O)(O)O)cc1)C(=O)N[C@@H](CO)C(=O)N[C@@H](C)C(=O)N[C@@H](CO)C(=O)N[C@@H](C)C(N)=O
KM, steady-state dephosphorylation of the pY peptide [4]: 800 µM

B4: Ac-YRKRFpYRYKF-NH2 (basic) (peptide)
peptide: Ac-YRKRF[pY]RYKF-NH2
SMILES: CC(=O)N[C@@H](Cc1ccc(O)cc1)C(=O)N[C@@H](CCCNC(=N)N)C(=O)N[C@@H](CCCCN)C(=O)N[C@@H](CCCNC(=N)N)C(=O)N[C@@H](Cc1ccccc1)C(=O)N[C@@H](Cc1ccc(OP(=O)(O)O)cc1)C(=O)N[C@@H](CCCNC(=N)N)C(=O)N[C@@H](Cc1ccc(O)cc1)C(=O)N[C@@H](CCCCN)C(=O)N[C@@H](Cc1ccccc1)C(N)=O
kcat/KM, steady-state dephosphorylation of the pY peptide (KM not given) [4]: 1500 M⁻¹ s⁻¹

B5: Ac-AApYADDAA-NH2 (peptide)
peptide: Ac-AA[pY]ADDAA-NH2
SMILES: CC(=O)N[C@@H](C)C(=O)N[C@@H](C)C(=O)N[C@@H](Cc1ccc(OP(=O)(O)O)cc1)C(=O)N[C@@H](C)C(=O)N[C@@H](CC(=O)O)C(=O)N[C@@H](CC(=O)O)C(=O)N[C@@H](C)C(=O)N[C@@H](C)C(N)=O
KM, steady-state dephosphorylation of the pY peptide [1]: 2.2 µM | KM, steady-state dephosphorylation of the pY peptide [2]: 12 µM | KM, steady-state dephosphorylation of the pY peptide [3]: 6.4 µM

B6: Ac-EEDNAWpYAA-NH2 (peptide)
peptide: Ac-EEDNAW[pY]AA-NH2
SMILES: CC(=O)N[C@@H](CCC(=O)O)C(=O)N[C@@H](CCC(=O)O)C(=O)N[C@@H](CC(=O)O)C(=O)N[C@@H](CC(N)=O)C(=O)N[C@@H](C)C(=O)N[C@@H](Cc1c[nH]c2ccccc12)C(=O)N[C@@H](Cc1ccc(OP(=O)(O)O)cc1)C(=O)N[C@@H](C)C(=O)N[C@@H](C)C(N)=O
KM, steady-state dephosphorylation of the pY peptide [1]: 1.3 µM | KM, steady-state dephosphorylation of the pY peptide [2]: 9.5 µM | KM, steady-state dephosphorylation of the pY peptide [3]: 1.9 µM

B7: Ac-AApYDDIDE-NH2 (peptide)
peptide: Ac-AA[pY]DDIDE-NH2
SMILES: CC[C@H](C)[C@H](NC(=O)[C@H](CC(=O)O)NC(=O)[C@H](CC(=O)O)NC(=O)[C@H](Cc1ccc(OP(=O)(O)O)cc1)NC(=O)[C@H](C)NC(=O)[C@H](C)NC(C)=O)C(=O)N[C@@H](CC(=O)O)C(=O)N[C@@H](CCC(=O)O)C(N)=O
KM, steady-state dephosphorylation of the pY peptide [1]: 3.5 µM | KM, steady-state dephosphorylation of the pY peptide [2]: 56 µM | KM, steady-state dephosphorylation of the pY peptide [3]: 37 µM

B8: Ac-YDEDFpYDYEF-NH2 (acidic) (peptide)
peptide: Ac-YDEDF[pY]DYEF-NH2
SMILES: CC(=O)N[C@@H](Cc1ccc(O)cc1)C(=O)N[C@@H](CC(=O)O)C(=O)N[C@@H](CCC(=O)O)C(=O)N[C@@H](CC(=O)O)C(=O)N[C@@H](Cc1ccccc1)C(=O)N[C@@H](Cc1ccc(OP(=O)(O)O)cc1)C(=O)N[C@@H](CC(=O)O)C(=O)N[C@@H](Cc1ccc(O)cc1)C(=O)N[C@@H](CCC(=O)O)C(=O)N[C@@H](Cc1ccccc1)C(N)=O
KM, steady-state dephosphorylation of the pY peptide [5]: 280 µM | KM, steady-state dephosphorylation of the pY peptide [4]: 2.2 µM

B9: Ac-ASSDEpYAA-NH2 (peptide)
peptide: Ac-ASSDE[pY]AA-NH2
SMILES: CC(=O)N[C@@H](C)C(=O)N[C@@H](CO)C(=O)N[C@@H](CO)C(=O)N[C@@H](CC(=O)O)C(=O)N[C@@H](CCC(=O)O)C(=O)N[C@@H](Cc1ccc(OP(=O)(O)O)cc1)C(=O)N[C@@H](C)C(=O)N[C@@H](C)C(N)=O
KM, steady-state dephosphorylation of the pY peptide [1]: 1.8 µM | KM, steady-state dephosphorylation of the pY peptide [2]: 32 µM | KM, steady-state dephosphorylation of the pY peptide [3]: 3.8 µM | KM, steady-state dephosphorylation of the pY peptide [6]: 1.9 µM

B10: Ac-AApYAADDA-NH2 (peptide)
peptide: Ac-AA[pY]AADDA-NH2
SMILES: CC(=O)N[C@@H](C)C(=O)N[C@@H](C)C(=O)N[C@@H](Cc1ccc(OP(=O)(O)O)cc1)C(=O)N[C@@H](C)C(=O)N[C@@H](C)C(=O)N[C@@H](CC(=O)O)C(=O)N[C@@H](CC(=O)O)C(=O)N[C@@H](C)C(N)=O
KM, steady-state dephosphorylation of the pY peptide [1]: 2.6 µM | KM, steady-state dephosphorylation of the pY peptide [2]: 11 µM | KM, steady-state dephosphorylation of the pY peptide [3]: 6.9 µM

Reference: publication PMC3954597 (Biochemistry, 2014)
